We go through three molecules from patent US20210388105A1 (ELPISCIENCE SUZHOU BIOPHARMA, published 2021).

In assay [1] the target is T1, ENTPD2 protein (Homo sapiens (Human), UniProt Q9Y5L3 29-462).
T1 construct: also called CD39L1; ENTPDase 2
T1 sequence: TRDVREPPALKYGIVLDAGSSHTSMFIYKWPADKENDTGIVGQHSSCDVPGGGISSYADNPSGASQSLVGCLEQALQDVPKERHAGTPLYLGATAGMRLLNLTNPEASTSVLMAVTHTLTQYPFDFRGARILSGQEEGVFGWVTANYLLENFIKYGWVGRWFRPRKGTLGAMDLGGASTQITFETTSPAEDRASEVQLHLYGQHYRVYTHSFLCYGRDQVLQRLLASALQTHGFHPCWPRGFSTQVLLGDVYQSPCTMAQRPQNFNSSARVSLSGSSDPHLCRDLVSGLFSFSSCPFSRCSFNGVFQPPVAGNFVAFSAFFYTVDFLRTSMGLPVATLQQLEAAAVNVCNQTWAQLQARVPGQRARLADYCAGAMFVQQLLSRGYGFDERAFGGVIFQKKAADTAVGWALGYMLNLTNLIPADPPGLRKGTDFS
Description: ELISA on coated ENTPD2 protein, anti-hIgG-HRP, OD450. As for the experimental part: Binding specificity of the purified humanized antibody hu23.H5L5 against ENTPDase family members was detected by ELISA assay. Briefly, ENTPD1 (i.e. CD39) and ENTPD 2/3/5/6 proteins were coated on 96-well ELISA plates at 4° C. overnight, next day the ELISA plates were washed and blocked using blocking buffer (1% BSA in PBS with 0.05% Tween20) 200 μL/well for 2 hours. Then hu23.H5L5 gradients were duplicated into the wells and stained with anti-hIgG-HRP. After plate washing, the plates were developed with TMB substrate and stopped by 2N HCl. The OD450 were recorded using plate reader and platted by Graphpad Prism.
On the technique in general: In an ELISA, binding on a coated surface is turned into a signal by an enzyme label.

Assay [2] concerns the target T2, KW27-20 (human CD39 mutant, C-terminal EGFP) (human, UniProt P49961 1-510).
T2 construct: expressed on HEK293F cells; not shown: C-terminal EGFP fusion (vector pCMV3-GFPSpark)
T2 chain: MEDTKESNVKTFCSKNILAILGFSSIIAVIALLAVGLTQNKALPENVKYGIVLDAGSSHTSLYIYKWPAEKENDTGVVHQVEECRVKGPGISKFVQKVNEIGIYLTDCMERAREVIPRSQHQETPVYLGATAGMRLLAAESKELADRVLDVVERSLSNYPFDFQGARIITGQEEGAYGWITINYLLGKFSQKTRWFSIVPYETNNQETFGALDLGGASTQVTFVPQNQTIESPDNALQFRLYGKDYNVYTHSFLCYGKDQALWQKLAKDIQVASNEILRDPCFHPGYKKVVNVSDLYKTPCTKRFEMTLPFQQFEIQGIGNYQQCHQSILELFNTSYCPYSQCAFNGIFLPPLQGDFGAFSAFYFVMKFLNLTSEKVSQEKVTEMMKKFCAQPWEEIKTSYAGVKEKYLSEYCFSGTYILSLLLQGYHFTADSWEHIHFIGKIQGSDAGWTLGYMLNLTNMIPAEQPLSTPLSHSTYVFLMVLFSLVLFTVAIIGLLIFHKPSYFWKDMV
Description: FACS, mutant-EGFP on HEK293F cells. The method, boiled down: (§1)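 Relative binding, the ratio of AlexaFluor647 to GFP signal, was read by flow cytometry with labelled anti-hIgG. Antibody ran as an 11-point, 3-fold series starting at 100 nM. Targets were CD39 mutant–GFP fusions expressed transiently in HEK293F cells for 3 days.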
(In flow cytometry, cells or beads pass a laser one at a time.)

For assay [3], the target named is T3, 6×His tagged human CD39 (human, UniProt P49961 38-478).
T3 construct: Analyte in the Biacore assay
T3 sequence: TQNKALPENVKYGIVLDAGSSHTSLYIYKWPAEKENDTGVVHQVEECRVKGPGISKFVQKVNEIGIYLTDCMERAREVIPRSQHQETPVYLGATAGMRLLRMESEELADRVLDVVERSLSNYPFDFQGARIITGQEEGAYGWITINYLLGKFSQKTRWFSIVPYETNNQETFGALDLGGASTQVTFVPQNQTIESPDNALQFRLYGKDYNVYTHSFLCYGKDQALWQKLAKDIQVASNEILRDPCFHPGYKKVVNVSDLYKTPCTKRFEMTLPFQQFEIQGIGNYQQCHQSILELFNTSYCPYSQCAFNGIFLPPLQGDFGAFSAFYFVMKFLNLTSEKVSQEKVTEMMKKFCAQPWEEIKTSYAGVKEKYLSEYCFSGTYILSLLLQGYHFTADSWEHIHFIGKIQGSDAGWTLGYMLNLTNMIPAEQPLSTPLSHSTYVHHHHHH
The assay is described as follows: Biacore SPR, antibody captured on CM5 chip, His-tagged CD39 as analyte. The method, then: In particular, humanized antibodies hu23.H5L5, hu23.201, hu14.H1L1 and reference antibodies 1394 and T895 were characterized for binding affinity against human CD39 using Biacore (GE). Briefly the antibodies to be tested were captured to CM5 chip (GE) using Human Antibody Capture Kit (GE). The antigen of 6×His tagged human CD39 was serially diluted for multiple doses and injected at 30 μl/min for 180s. Buffer flow was maintained for dissociation of 400s. 3 M MgCl2 was used for chip regeneration. The association and dissociation curves were fit with 1:1 binding model, and the Ka/Kd/KD values for each antibody were calculated.
(In general: In SPR one partner is held on a chip, and binding of the other changes the refractive index at the surface.)

Assay [4] addresses T4, KW27-2 (human CD39 mutant, C-terminal EGFP) (human, UniProt P49961 1-510).
T4 construct: expressed on HEK293F cells; not shown: C-terminal EGFP fusion (vector pCMV3-GFPSpark)
T4 chain: T2 chain with V81S, E82A, R111A, V115A, A138R, A139M, K142E
The assay is described as follows: FACS, mutant-EGFP on HEK293F cells. The method, boiled down:
as §1

Where a chain is given by its changes, count along the chain named.

B1: hu23.H5L5 (antibody, V domains shown)
VH: QVQLVQSGAEVKKPGASVKVSCKASGYNLKDTFLHWVRQAPGQGLEWMGRIDPANGNIKYDPKFQGRVTITADTSANTAYMELISLRSEDTAVYYCANSPYYYGSGYRIFDVWGQGTTVTVSS
VL: QIVLTQSPATLSLSPGERATLSCSAFSSVNYMHWYQQKPGQAPRLLIYTTSNLASGIPTRFSGSGSGTSYTLTISSLEPEDFAVYYCQQRSTYPFTFGQGTKLEIK
notes: humanized c23
Broadly, the Kd is the free concentration of one partner at which half of the binding sites on the other are occupied at equilibrium, for simple one-to-one binding. Higher therefore signals a looser complex. In general, koff refers to the rate constant with which the complex falls apart. One may read the kon as a measure of how fast the partners come together. Low readings indicate slow association, high ones fast association. As for B1, the binding result in assay [1] is reported as “no binding (tested: about 66 nM)”. Moreover, the binding result in assay [2] was “no binding (tested: 100 nM highest concentration)”. In assay [3], this molecule had a Kd of 19.5 nM, a koff of 0.0016 s⁻¹ and an on-rate constant (kon) of 82200 M⁻¹ s⁻¹.

B2: c35 (antibody, V domains shown)
VH: EVRLQQSGAELVKPGASVKLSCTASGFNIEDTYVHWMKQRPEQGLEWIGRIDPAIDNSKYDPKFQGKATITAVSSSNTAYLQLSSLTSEDTAVYYCALYDGYNVYAMDYWGQGTSVTVSS
VL: DIVMTQAAFSNPVTLGTSASISCRSSKNLLHSNGITYLYWYLQRPGQSPQLLIYRASTLASGVPNRFSGSESGTDFTLRISRVEAEDVGVYYCAQLLELPHTFGGGTKLEIK
notes: its making is not described; also called chimeric antibody c35
As for B2, the binding result in assay [4] was “no binding (tested: 100 nM highest concentration)”.

B3: Antibody T895 (antibody, V domains shown)
VH: EVQLQQSGPELVKPGASVKMSCKASGYTFTDYNMHWVKQSHGRTLEWIGYIVPLNGGSTFNQKFKGRATLTVNTSSRTAYMELRSLTSEDSAAYYCARGGTRFAYWGQGTLVTVSA
VL: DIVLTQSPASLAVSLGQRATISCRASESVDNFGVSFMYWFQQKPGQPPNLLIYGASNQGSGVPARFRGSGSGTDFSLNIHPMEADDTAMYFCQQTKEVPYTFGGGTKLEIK
notes: also called 31895
For B3, in assay [3], the affinity, expressed as Kd, was 1040 nM; the koff turned out to be 0.139 s⁻¹; the kon came to 133000 M⁻¹ s⁻¹.
